In publication PMC9033776 one finds Kd data, which are given here for 2 substances.

pKd: −log10 of the molar value.

The target of assay [1] is BRD4-bromo1 (amino acids 54–168) (UniProt O60885). Briefly: ITC; 3 mM H2A.Z peptides titrated into 0.3 mM bromodomains; 25 °C; 20 mM Hepes-Na pH 7.5, 100 mM NaCl; One Set of Binding Sites model.
Assay [2] deals with BRD4-bromo2 domain (amino acids 351–457) (UniProt O60885). The description is as above.

In general, pKd refers to −log10 of the Kd, conventionally taken in molar units. Read a high pKd as a low Kd. On to “di-acetylated H2A.Z (1–15) K4acK7ac peptide (from UniProt P0C0S5 2-16)”, for which the pKd in assay [1] is 2.32; in assay [2], 3.09.

Regarding “tri-acetylated H2A.Z (1–15) K4acK7acK11ac peptide (from UniProt P0C0S5 2-16)”, the negative-log Kd (pKd) is 2.64 in assay [1] and 3.22 in assay [2].
